# In article PMC2132560 (The Journal of Cell Biology, 1997):
# B1: GST-transportin1 fusion protein (natural protein)
# chain: MEYEWKPDEQGLQQILQLLKESQSPDTTIQRTVQQKLEQLNQYPDFNNYLIFVLTKLKSEDEPTRSLSGLILKNNVKAHFQNFPNGVTDFIKSECLNNIGDSSPLIRATVGILITTIASKGELQNWPDLLPKLCSLLDSEDYNTCEGAFGALQKICEDSAEILDSDVLDRPLNIMIPKFLQFFKHSSPKIRSHAVACVNQFIISRTQALMLHIDSFIENLFALAGDEEPEVRKNVCRALVMLLEVRMDRLLPHMHNIVEYMLQRTQDQDENVALEACEFWLTLAEQPICKDVLVRHLPKLIPVLVNGMKYSDIDIILLKGDVEEDETIPDSEQDIRPRFHRSRTVAQQHDEDGIEEEDDDDDEIDDDDTISDWNLRKCSAAALDVLANVYRDELLPHILPLLKELLFHHEWVVKESGILVLGAIAEGCMQGMIPYLPELIPHLIQCLSDKKALVRSITCWTLSRYAHWVVSQPPDTYLKPLMTELLKRILDSNKRVQEAACSAFATLEEEACTELVPYLAYILDTLVFAFSKYQHKNLLILYDAIGTLADSVGHHLNKPEYIQMLMPPLIQKWNMLKDEDKDLFPLLECLSSVATALQSGFLPYCEPVYQRCVNLVQKTLAQAMLNNAQPDQYEAPDKDFMIVALDLLSGLAEGLGGNIEQLVARSNILTLMYQCMQDKMPEVRQSSFALLGDLTKACFQHVKPCIADFMPILGTNLNPEFISVCNNATWAIGEISIQMGIEMQPYIPMVLHQLVEIINRPNTPKTLLENTAITIGRLGYVCPQEVAPMLQQFIRPWCTSLRNIRDNEEKDSAFRGICTMISVNPSGVIQDFIFFCDAVASWINPKDDLRDMFCKILHGFKNQVGDENWRRFSDQFPLPLKERLAAFYGV
# B2: recombinant hnRNP A1 protein (natural protein, human, UniProt P09651-2 1-320, looked up)
# chain: MSKSESPKEPEQLRKLFIGGLSFETTDESLRSHFEQWGTLTDCVVMRDPNTKRSRGFGFVTYATVEEVDAAMNARPHKVDGRVVEPKRAVSREDSQRPGAHLTVKKIFVGGIKEDTEEHHLRDYFEQYGKIEVIEIMTDRGSGKKRGFAFVTFDDHDSVDKIVIQKYHTVNGHNCEVRKALSKQEMASASSSQRGRSGSGNFGGGRGGGFGGNDNFGRGGNFSGRGGFGGSRGGGGYGGSGDGYNGFGNDGSNFGGGGSYNDFGNYNNQSSNFGPMKGGNFGGRSSGPYGGGGQYFAKPRNQGGYGGSSSSSSYGSGRRF
# How the values were obtained:
# [1] = target: RanGTP (UniProt P62826 1-216); experiment: native gel or EMSA
# [2] = target: B1; experiment: native gel or EMSA
binding result [1],binding result [2],Binder
binds,,B1
,binds,B2
